Reference: the supplement of paper PMC12764529
± gives the half width of the 95% confidence interval.

Columns and labels:
[1] = folding stability dG unfold from trypsin proteolysis; higher = more stable
Description: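 Folding stability of de novo designed mini-proteins (<80 aa, no Cys; designed by TrROS, TrMRF, ProteinMPNN and the joint model) was measured by cDNA display proteolysis with trypsin and chymotrypsin. Each protease was used at 11 concentrations in a threefold dilution series plus a no-protease condition. K50 was inferred by Bayesian fitting of sequencing counts, and dG unfold was derived against a sequence-predicted unfolded-state K50 (Tsuboyama et al. method). Sequences shown include variable-length N-terminal GS-type padding (SAGGSAGG...) inside a display construct carrying a PA tag. Rows were kept only if the AF2 dimer inter-PAE was >15, to exclude likely homo-oligomers.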

[2] = folding stability dG unfold (combined trypsin and chymotrypsin); higher = more stable
Summary of the method: (§1)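 Designed mini-proteins (under 80 residues, no cysteine) in a PA-tagged cDNA display construct were digested with trypsin and chymotrypsin. Each protease was used at 11 concentrations (threefold dilutions) plus a no-protease condition, followed by sequencing. K50 was inferred by Bayesian fitting of sequencing counts, and unfolding free energy was derived against a sequence-predicted unfolded-state K50 and a shared folded-state K50, per protease or combined. Only designs with AlphaFold2 dimer inter-PAE above 15 were kept.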

[3] = folding stability dG unfold from chymotrypsin proteolysis; higher = more stable
Summary of the method: as §1

Sequence | folding stability dG unfold [1] | folding stability dG unfold [2] | folding stability dG unfold [3]
SAGGSPVVLTKSPDGLLYVVTLTDPANSLDRVKAKVTAYDPNKPVPLGELTIELDPKTGKAVSALSSAGGSA [r2_324_JUSTAS] | -0.543 ± 0.097 kcal/mol | 0.21 ± 0.093 kcal/mol | 0.488 ± 0.089 kcal/mol
SAGGSAGGKKKKPPPLVVVKIEITNPNGEKKELTLVFPSLEDAKAAIEALLPPGYTAKVEIKPLSAGGSAGG [r6_289_TrROS_Hall] | 3.16 ± 0.35 kcal/mol |  | 3.69 ± 0.37 kcal/mol
SEEIAKKIADELKKAGYEVVKVEVTYDKETKKVTIKIVVKDKKTNEYYKITIKLNEETGEIVEVKIEKLPSA [r9_814_TrROS_Hall] | 2.96 ± 0.42 kcal/mol |  | 4.14 ± 0.41 kcal/mol
SAGGSAGGSAGGGKYRLKLRFTFTNAAGGSSELELEVEIEIPPPPLIAPDADGHWYSLTSAGGSAGGSAGGS [r10_330_TrMRF] | 3.86 ± 0.27 kcal/mol |  | 5.31 ± 0.65 kcal/mol
SAGGSAGGSAGEEEVEPPPEVVVRVRFFDKDGKEVLEVEMSLDELRALAEAGLVEVELEPSAGGSAGGSAGG [r11_159_TrROS_Hall] | 2.97 ± 0.25 kcal/mol |  | 2.63 ± 0.33 kcal/mol
SADKIKIPPGFQIFGPNGQPIRPGTEVEVEDIEPHPGGGEFMFEVKIKSPDDGEEHNWPIMIRFPPAGKSAG [r14_258_TrROS] | 0.755 ± 0.13 kcal/mol |  | -0.395 ± 0.24 kcal/mol
SAGGDPAPLEVDIEMDPDNGRIRIEIRAGGSKVIYEYEIPLDGYEFKVKIIVVDGKIVIEIEFEMPDSAGGS [r16_631_TrROS] | 4.27 ± 0.55 kcal/mol |  | 3.81 ± 0.27 kcal/mol
SAGGKRKIMIPMDEMEEKFGIPPNQTVEELAKYINPNYKIEVDNVRYEKDENGKERYWVKVEIEPPKDSAGG [r13_723_TrROS] | 0.739 ± 0.25 kcal/mol |  | -0.136 ± 0.61 kcal/mol
SAGGSAGGSASVSSPERFTVPRPDGTPVEVTLVEPEKGYYEVTDPATGERTRLPIEDIPPVSAGGSAGGSAG [r3_213_JUSTAS] | -0.607 ± 0.12 kcal/mol | < -1 kcal/mol | 
SITASAKHPEEAIELAEKLKKELEKLLGPDTKVPITLYDDKGNPATFPITLKKKKPKVIYDPEKGLYRDESA [r9_596_TrMRF] | 0.042 ± 0.25 kcal/mol | -0.332 ± 0.55 kcal/mol | 
SAGGEPIKIKIDSVQEQPNPDGGPYLYVKITYPDGGRQTGMFDSPEDFKSQLEGEPGFKKIEIEPIRSAGGS [r16_757_TrROS] | -0.839 ± 0.52 kcal/mol | < -1 kcal/mol | 
SMKALVLELPEEKVVVVFETDELKVVPIPVKDKEEAKEKIEELVKELEEETGKKPEVVVVEVDEDEELPVSA [r9_786_TrMRF] | -0.0691 ± 0.16 kcal/mol | < -1 kcal/mol | 
SAGGSPTIDITPEVFEELKKKGVTPDKESFNITASLPDGTVYEGTITLPPSNPNIPFEYKPVDKPLESAGGS [r16_497_JUSTAS] | -0.22 ± 0.061 kcal/mol | -0.515 ± 0.21 kcal/mol | 
SAGGSAMVPEDEGLIVVERDVPFDKAEEFVEEVIEELGIPPEKVKKIELFEEKVEDGPALRALVYLSAGGSA [r15_934_TrMRF] | -0.294 ± 0.32 kcal/mol | < -1 kcal/mol | 
SAGGSAGGSAGSMPIVLRAEFPSNDETVEIPVTSPEEAERVAQELAAQPDWPLEKVDFGGSAGGSAGGSAGG [r11_951_JUSTAS] | 0.414 ± 0.064 kcal/mol | < -1 kcal/mol | 
SAGGSAGGSASSPSSPVKVTVTVTAPDSLVKTITVTKTPEGVIDLVLPSDIPSDYKITIIESAGGSAGGSAG [r3_44_JUSTAS] | 0.0537 ± 0.08 kcal/mol | -0.699 ± 0.51 kcal/mol | 
SAGGSAGGSTPPLTTETEAVIEIEGGLYSVKVTQLPPDETLMTIPANGMIIRETPDKIEIRPESAGGSAGGS [r12_737_JUSTAS] | -0.374 ± 0.28 kcal/mol | < -1 kcal/mol | 
SAGGSAGGSAGPGEPVPIRLKIYGPNGQPHTHPFPVKNPEEFKDNLRFPVPNGWAVEIEYSAGGSAGGSAGG [r11_671_TrROS] | -0.719 ± 0.37 kcal/mol | < -1 kcal/mol | 
SAGGSAGGSAGGSMRYDIVEDPETGTVTINRYVVYPPGIEKKTEGEIVPASTVPPGDLLGSAGGSAGGSAGG [r7_455_JUSTAS] | -0.0505 ± 0.29 kcal/mol | < -1 kcal/mol | 
SAGGSAGGSAGGGESAAPVVATTVSEEVFEEPGGTVIRRYTVTTPAATTTLSTEVLPPLLSAGGSAGGSAGG [r7_43_JUSTAS] | -0.25 ± 0.17 kcal/mol | < -1 kcal/mol | 
SAGGSAGGSAGGHPVRVRITWPDGQQRTIPIPVDPENGQVTLEEIAKTISPEHGWKIEVFSAGGSAGGSAGG [r7_492_TrROS] | -0.107 ± 0.2 kcal/mol | -0.638 ± 0.51 kcal/mol | 
SAGGSAGGSMRFVTIKVPGPDTTFTFDTDGDEALEAKLAELEKKHPEIKKENIEKLEVNPGPGSAGGSAGGS [r12_852_JUSTAS] | -0.345 ± 0.52 kcal/mol | < -1 kcal/mol | 
SAGGMTIVKPSDGTPQFIEDEEAEKLVKELEEKGLLKKEKPGDITIPLPTVDPVTGKPRTTTITILPESSAG [r5_243_JUSTAS] | -0.962 ± 0.14 kcal/mol | < -1 kcal/mol | 

Sequence | folding stability dG unfold [1] | folding stability dG unfold [2] | folding stability dG unfold [3]
SAGGSAGGSAGMSPNIVSYETVESDKNGNIIKKTTYLYSDNTIITETFSPKKKKKIQTFSKESAGGSAGGSA [r18_302_JUSTAS] | -0.434 ± 0.29 kcal/mol | < -1 kcal/mol | 
SAGGSAGGSMYRYTVTFPNTGTVLEKEFESLEEAKKYIPKDRPIKEIKVEPVEPPVSPEVLLVSAGGSAGGS [r12_851_JUSTAS] | -0.217 ± 0.18 kcal/mol | -0.651 ± 0.26 kcal/mol | 
SAGGWMPIEDLKDIPENMPPGYKITIRNPGNGQEGTFEYNKDGGIKIEDPGKPVEIPPGAYIDEIEPSAGGS [r8_162_TrROS] | 0.654 ± 0.12 kcal/mol | -0.679 ± 0.71 kcal/mol | 
SAGGSAGGSAMTPDELKDNFPNMPVEPRPLNNSTQWKIEMPGGMRIEIQYDPGKPKIDIEEGSAGGSAGGSA [r18_13_TrROS] | -0.039 ± 0.064 kcal/mol | -0.622 ± 0.23 kcal/mol | 
SAGGSAGGSAGGSQELTIKIPPGEPDVRIFFPDGGEEHEIPPGDEREIELSPDKIAVQPSAGGSAGGSAGGS [r10_46_TrROS] | 0.763 ± 0.059 kcal/mol | -0.148 ± 0.25 kcal/mol | 
SADFKPEGPSNNALVWKNPNSGKMFMIYPSDDNIEVQEIEYDPGNNKPEPETERVPLPEDDRDDLKDLLSAG [r14_245_TrROS] | -0.663 ± 0.14 kcal/mol | < -1 kcal/mol | 
SAGGSAEEKAKAIKEELEKKGEVKKVTVTIEPTPENSTKVTVEIEKEPKPKPKEYKYTELPNGKKVILSAGG [r13_957_JUSTAS] | -0.416 ± 0.12 kcal/mol | < -1 kcal/mol | 
SAGGSVRIESIKWKRPPNGMFKIEIHVEAPPGDPDDPEKQERQAESVAKPIAKELQDEFGFKPIGPSAGGSA [r2_306_TrROS] | -0.774 ± 0.99 kcal/mol | < -1 kcal/mol | 
SAGGSAGGSAGGPVVNILVKHPNGKKETISVDVKEENIGEVATDILPKGYEVLEPSVFPGSAGGSAGGSAGG [r7_159_TrMRF] | -0.258 ± 0.1 kcal/mol | < -1 kcal/mol | 
SAGGSATIKEGQVITRTVTDPSTGKEYEVEITIKKVTKYPASPEGILREEYEIEVKKSPKVSPLKLSAGGSA [r15_248_JUSTAS] | 0.112 ± 0.12 kcal/mol | < -1 kcal/mol | 
SAGGGMVERTETVTVPLSDVLAGRPPTPEAIAAARFPDTAEVTLETTEVPEDDTVTVTLTVRVPPELLSAGG [r13_862_JUSTAS] | 0.472 ± 0.069 kcal/mol | -0.0656 ± 0.21 kcal/mol | 
SAGGSALPPDQRLVVIDLGREPGVTPDEPVEVPEELIEKIKKENPNVKLVEVKHEGDKVTLYIAIKSAGGSA [r2_383_JUSTAS] | -0.0124 ± 0.48 kcal/mol | < -1 kcal/mol | 
SAGGPKLYIMIPPELRDNFPDIEIRPVEIPDDNIEIEIKFPGKKVTFPIYIFDPDGKIVEPQTITIEPSAGG [r13_129_TrROS] | 0.501 ± 0.076 kcal/mol | 0.226 ± 0.27 kcal/mol | 
SAGGSAGGSAGGKKKVKVGNKEVEIVKEEEKEGKLIIKDKKTGKKIEISKEDLKKKKIKLSAGGSAGGSAGG [r7_391_TrROS_Hall] | -0.42 ± 0.52 kcal/mol | < -1 kcal/mol | 
SAGGSAMIKTYEEEVELTVPGGSTPVKVRVKTIEKIEKDEKGNLKTEVVEVKIETPENAPAVALLLSAGGSA [r15_258_JUSTAS] | -0.327 ± 0.21 kcal/mol | -0.857 ± 0.51 kcal/mol | 
SAGGSAMPPGQPWKIKRTIPFKDPNGWKITIYRMPDDGHVWVRWEPPNGGEREVWMPAEEAEDALKSAGGSA [r15_2_TrROS] | 0.902 ± 0.23 kcal/mol | 0.307 ± 0.58 kcal/mol | 
SAGGSAGGSGMKPAKVLKVEEFFDPKNNTSFKKVEAELPDRKITLELPPGEPVDENSTILVEESAGGSAGGS [r20_49_JUSTAS] | -0.428 ± 0.28 kcal/mol | -0.759 ± 0.47 kcal/mol | 
VEFEEIETTFTLAAPGGSLVDVDLKTTKKDPKNGKVYIEGTLTTVDPGGVPRTLPTKRVVSPEELKQLVSES [r1_371_JUSTAS] | 0.143 ± 0.19 kcal/mol | -0.318 ± 0.49 kcal/mol | 
SAGGSAGGSAGGKKVKIKIEIPGMSKEEIEKLAKELEKKGIKVEKIEVKPLPKVEVFEKKSAGGSAGGSAGG [r7_906_TrROS_Hall] | -0.602 ± 0.27 kcal/mol | < -1 kcal/mol | 
SAGGSAGGSAGGMPIRVYRDPSNPDVVYVETPESTRDVSLEEVERLPVDEIRSAAEVAAESAGGSAGGSAGG [r17_88_JUSTAS] | 0.335 ± 0.021 kcal/mol | -0.206 ± 0.16 kcal/mol | 
SAGGSAEKPTATLRPVVLNYPEGPISRDPSGNVVNSPEELAKEVKEEILKKTGLPVEEIVVLVEPPSAGGSA [r15_415_JUSTAS] | -0.739 ± 0.061 kcal/mol | < -1 kcal/mol | 
SAGGSAGGSAGGLSPESFYTVEVYNKDGTKLGPAQVVSTGTGKVVIPIEPDVEIILNPSSAGGSAGGSAGGS [r10_1257_JUSTAS] | 0.346 ± 0.17 kcal/mol | -0.136 ± 0.21 kcal/mol | 
SAGGSLPVVDGPSDLVETTVYEDGTIEIKVERAEPPGVPTVRTLTITLEPPVGPPKVPPGNPKYLGSAGGSA [r2_368_JUSTAS] | -1.08 ± 0.53 kcal/mol | < -1 kcal/mol | 
